Measured values reported in the supplement of paper PMC12042874.
± gives the uncertainty stated by the source.

Assay: amyloid nucleation score (Sup35N fusion, yeast selection) (log enrichment); library NNK1; higher = more nucleation; inactive = no reads after selection
Method in brief: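 Peptides of 20 random codons fused to Sup35N were expressed in psi-negative yeast, induced 24 hours with 100 μM copper sulfate, then grown 7 days at 30°C on medium lacking adenine and uracil. Input and output plasmid inserts were Illumina-sequenced. Nucleation score is the DiMSum log enrichment of output over input reads, centred on the mode score of non-aggregating sequences, excluding sequences with under 100 input reads. Random libraries had three technical output replicates.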

SIHVVVTQLALISLLNVKSV
amyloid nucleation score: inactive

SILCIF
amyloid nucleation score: 0.338 ± 1.2

SILFATAFMPVGLRLNDVLS
amyloid nucleation score: -0.003 ± 0.46

SILKIALTH
amyloid nucleation score: -1.71 ± 1.4

SIRTVSLLR
amyloid nucleation score: -0.859 ± 0.42

SITVKKES
amyloid nucleation score: 0.254 ± 0.62

SIWSGMLTGCFRLRSITWHN
amyloid nucleation score: 0.908 ± 0.24

SIYET
amyloid nucleation score: 0.524 ± 0.49

SIYSRGSVLANPCSFYAEVR
amyloid nucleation score: inactive

SKARKIWYAWLVTPPMRQTE
amyloid nucleation score: 0.667 ± 0.3

SKCVSIMAS
amyloid nucleation score: inactive

SKESKSSEARLLIR
amyloid nucleation score: -1.39 ± 1.3

SKIESHFWLVFNIRGSYNKA
amyloid nucleation score: 7.298 ± 0.046

SKILGISKVNCGALL
amyloid nucleation score: -1.82 ± 1.8

SKLIHYTSFLDYASSGEWKW
amyloid nucleation score: 2.81 ± 0.17

SKMILEV
amyloid nucleation score: inactive

SKSLFIIGTVPDRS
amyloid nucleation score: -0.467 ± 0.52

SKVIESDSVCYILHRFKNQC
amyloid nucleation score: 1.09 ± 0.17

SKVSVCNPSSLGSRVGGLAN
amyloid nucleation score: inactive

SKYDLISRANVLFVSANYRH
amyloid nucleation score: 0.511 ± 0.76

SLACRVGKYNHSYLSSLV
amyloid nucleation score: 0.583 ± 0.4

SLAPLHLFERMGGRS
amyloid nucleation score: 0.532 ± 0.86

SLAWSRMRCKFWSVSPSAFP
amyloid nucleation score: -0.352 ± 0.49

SLCHAFYSVNNLAFCHSFTP
amyloid nucleation score: 6.539 ± 0.061

SLDLL
amyloid nucleation score: -0.244 ± 0.46

SLILG
amyloid nucleation score: 0.083 ± 0.3

SLMKELKF
amyloid nucleation score: -0.034 ± 0.73

SLNVVLFCRPTGVCSHGIGW
amyloid nucleation score: 1.91 ± 0.26

SLQFLSKPHLLRESVSESVD
amyloid nucleation score: 0.381 ± 0.35

SLSMFLLTILTCYDGFIDIW
amyloid nucleation score: -0.372 ± 0.25

SLVLSYRVASNIKNPMTLDY
amyloid nucleation score: 1.24 ± 0.15

SLWAYNPV
amyloid nucleation score: 2.04 ± 0.38

SLWTLWGFSFGDT
amyloid nucleation score: -0.458 ± 0.47

SLYTKLAVPLGKWRIGYRLT
amyloid nucleation score: 0.46 ± 0.58

SMIDFIRSFLYHSY
amyloid nucleation score: -1.1 ± 0.5

SMMYKVSFGGGVFVLKLLVK
amyloid nucleation score: 0.266 ± 0.3

SMVSFII
amyloid nucleation score: -0.278 ± 0.72

SNAIDRAHPYRFGFCVNDVQ
amyloid nucleation score: -0.279 ± 0.47

SNCFGSSIGNYFRYMFVAYW
amyloid nucleation score: 1.86 ± 0.47

SNDCRMLWMIWKTGSACLDP
amyloid nucleation score: 0.271 ± 0.43

SNFLFRCSIWDDMGGKCRSK
amyloid nucleation score: inactive

SNILFLYRMKRALPNSSWEA
amyloid nucleation score: 0.152 ± 0.48

SNKFKPVWRVLMSRVSVEAW
amyloid nucleation score: -0.133 ± 0.68

SNLQWYRTKGGVGLVTVMWR
amyloid nucleation score: 0.981 ± 0.16

SNNVFMAVNSSQRIQQFMLA
amyloid nucleation score: 1.03 ± 0.14

SNNYLLCGIDGEVL
amyloid nucleation score: 1.07 ± 0.66

SNPYVWDVPLSRLWFVSWEL
amyloid nucleation score: 0.068 ± 0.65

SNQQLRWCECVYNGATGKVK
amyloid nucleation score: 1.35 ± 0.47

SNSKK
amyloid nucleation score: 0.009 ± 0.25

SNSRPGSGYSLFERTRYRNE
amyloid nucleation score: 0.345 ± 0.77

SNTDYCVSVPVLTVAFSVWA
amyloid nucleation score: -0.343 ± 0.51

SNTSMHRLLLIIVGKNMNVV
amyloid nucleation score: 0.261 ± 1

SNWLM
amyloid nucleation score: 2.06 ± 0.53

SPAFPP
amyloid nucleation score: 0.798 ± 0.79

SPGAWKHSNPDGDCNGLA
amyloid nucleation score: 0.525 ± 0.49

SPGMWGMGVDNSKSGRWALR
amyloid nucleation score: 1.89 ± 0.28

SPLVDLYDFRWRLESRYKNY
amyloid nucleation score: 0.107 ± 0.61

SPPTMIETGTHKASSH
amyloid nucleation score: 0.199 ± 0.57

SPRSLMKGVITTHIIG
amyloid nucleation score: 0.917 ± 0.4

SPSKLGSE
amyloid nucleation score: 0.903 ± 0.56

SPTLARSVWFRCLCTANGRE
amyloid nucleation score: 0.698 ± 0.93

SQAETLYFYVCQVLRGQYYD
amyloid nucleation score: 0.305 ± 0.32

SQAMTPNGVTSLLFTN
amyloid nucleation score: -0.236 ± 0.59

SQCQFVMVDRNGYGTKLRNY
amyloid nucleation score: -0.24 ± 0.36
